Source: CN109897110A (SHENZHEN BGI LIFE SCIENCE RES INSTITUTE, dated 2019)

Target: T1, 人PCSK9抗原多肽 (前蛋白转化酶枯草溶菌素9, PCSK9) (human, UniProt Q8NBP7 31-692, limits assumed)
T1 construct: Expressed in CHO cells; also called PCSK9蛋白; Proprotein convertase subtilisin/kexin type 9
Assay: ProteOn (SPR), PCSK9 immobilised on chip, nanobody dilution series as analyte

T1 sequence (Q8NBP7 31-692 limits assumed): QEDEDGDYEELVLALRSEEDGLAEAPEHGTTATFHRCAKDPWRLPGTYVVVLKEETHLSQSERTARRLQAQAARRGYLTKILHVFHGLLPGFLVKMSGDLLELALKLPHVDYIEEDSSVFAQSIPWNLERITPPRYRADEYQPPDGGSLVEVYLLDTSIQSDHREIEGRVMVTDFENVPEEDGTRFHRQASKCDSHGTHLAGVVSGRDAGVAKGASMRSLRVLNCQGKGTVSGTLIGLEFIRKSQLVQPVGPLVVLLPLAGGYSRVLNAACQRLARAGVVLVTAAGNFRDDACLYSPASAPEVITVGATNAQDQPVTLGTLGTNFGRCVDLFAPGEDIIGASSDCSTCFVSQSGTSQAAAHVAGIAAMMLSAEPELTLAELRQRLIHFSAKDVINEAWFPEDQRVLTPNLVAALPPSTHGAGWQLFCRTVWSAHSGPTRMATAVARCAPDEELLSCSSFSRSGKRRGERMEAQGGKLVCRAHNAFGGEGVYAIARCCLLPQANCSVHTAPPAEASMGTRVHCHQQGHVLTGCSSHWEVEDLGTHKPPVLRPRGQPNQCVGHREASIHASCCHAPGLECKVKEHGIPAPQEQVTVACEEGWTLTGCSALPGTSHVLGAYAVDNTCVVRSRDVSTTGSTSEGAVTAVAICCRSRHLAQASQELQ

B1: PCSK9纳米抗体 (VHH)
VHH: ESGGGSVQAGGSLRLSCTVSGYTYSSNCMGWFRQAPGKEHEGVASIYIGGGSTYYADSVKGRFTISQDNAKNTVYLQMNSLKPEDTAMYYCAVGCQGLVDFGYWDQGTQVTVSS
notes: Expressed from pMECS in E. coli HB2151 and purified on a Ni column; also called PCSK9 Nb; PCSK9 nanobody; not shown: tags from the pMECS vector (HA tag detected with anti-HA antibody); purified on a
- Kd: 25 nM
- koff: 0.000112 s⁻¹
- kon: 4490 M⁻¹ s⁻¹
